Each block holds one binder with its values, some of them ahead of it.
What was measured:
[1] = target: FITC labeled phosphorylated MST1 T367 peptide (human); assay: fluorescence polarisation; 20 nM FITC-labelled peptide, MOB protein titrated (12 points, triplicate); 25 mM HEPES pH 7.5, 150 mM NaCl, 2 mM DTT, 1 mg/ml BSA; one site-specific binding fit
[2] = target: FITC labeled phosphorylated MST1 T353 peptide (human); assay: as above

Kd [1]: 12200 nM
B1: MOB4 (tags cleaved) (natural protein)
chain: VMAEGTAVLRRNRPGTKAQDFYNWPDESFDEMDSTLAVQQYIQQNIRADCSNIDKILEPPEGQDEGVWKYEHLRQFCLELNGLAVKLQSECHPDTCTQMTATEQWIFLCAAHKTPKECPAIDYTRHTLDGAACLLNSNKYFPSRVSIKESSVAKLGSVCRRIYRIFSHAYFHHRQIFDEYENETFLCHRFTKFVMKYNLMSKDNLIVPILEEEVQNSVSGESEA

Kd [2]: 280 nM
Kd [1]: 680 nM
B2: MOB1A wild-type (natural protein)
chain: SFLFSSRSSKTFKPKKNIPEGSHQYELLKHAEATLGSGNLRQAVMLPEGEDLNEWIAVNTVDFFNQINMLYGTITEFCTEASCPVMSAGPRYEYHWADGTNIKKPIKCSAPKYIDYLMTWVQDQLDDETLFPSKIGVPFPKNFMSVAKTILKRLFRVYAHIYHQHFDSVMQLQEEAHLNTSFKHFIFFVQEFNLIDRRELAPLQELIEKLGSKDR
